Data: patent US20240218057A1 (ROCKEFELLER UNIVERSITY, published 2024)

B1: C1008 (antibody, V domains shown)
VH: EVQLVESGGGLIQPGGSLRLSCAASGFTVSSNYMSWVRQAPGKGLEWVSVIYSGGSTYYADSVKGRFTISRDNSKNTLYLQMNSLRAEDTAVYYCARVVGYDFWSGYDGGYFDYWGQGTLVTVSS
VL: QSALTQPASVSGSPGQSITISCTGTSSDVGSYNLVSWYQQHPGKAPKLMIYEVSKRPSGVSNRFSGSKSGNTASLTISGLQAEDEADYYCCSYAGSSTWVFGGGTKLTVL
notes: IgG; V domains only
B2: C1009 (antibody, V domains shown)
VH: EVQLVESGGGLLQPGGSLRLSCAASGFSVSSNYMTWVRQAPGKGLEWVAAIYSGDSTYYVDSVKGRFIISRDNSKNTVYLHLSSLRAEDTAVYYCARLVGYDFRSGSDGGYFDYWGHGTLVTVSS
VL: QSALTQPASVSGSPGQSITISCTGTSSDIGNYNLVSWYQQHPGKAPKLMIYDVSKRPSGVSNRFSGSKSGNTASLTISGLQAEDETDYYCCSYAGSSTWVFGGGTKLTVL
notes: IgG; V domains only
B3: C1003 (antibody, V domains shown)
VH: QVQLVESGGGVVQPGRSLRLSCAASGFAFSSYGMNWVRQAPGKGLEWVTTVSSDGNVNYYIDSVKGRFTISRDNSKNTLYLQMNSLRGDDTAVYYCAKGPRFGWSYRGGSGFDIWGQGTMVTVSS
VL: DIQMTQSPSSLSASVGDRVTITCQASQDISNYLNWYQQKPGKAPKLLIYDASNLETGVPSRFSGSGSGTDFTFTITSLQPEDIATYYCQQYDNLPITFGQGTRLEIK
notes: IgG; V domains only
B4: C1019 (antibody, V domains shown)
VH: QVQLVESGGGVVQPGTPLRLSCAASGFTFSSYAMHWVRQAPGKGLEWVAMISYDGGNKYYADSVKGRFTISRDNSKNTLFLQMNSLRGEDTAVYYCARSFSIRIGHKDNWGQGTLVTVSS
VL: NFMLTQPHSVSESPGKTVTISCTGSSGSIANNYVQWYQQRPGSAPTPVIYEDDQRPSGVPDRFSGSIDSSSNSASLSISGLKTEDEADYYCQSYDSTNFWVFGGGTKLTVL
notes: IgG; V domains only
B5: C1024 (antibody, V domains shown)
VH: QVQLVESGGGVVQPGRSLRLSCAASGFTFSDYAMHWVRQAPGKGLEWVAMISYDGNSQYYADSVKGRFTISRDNSKNTLYLQMNILRPEDTAVYYCARTFSIRIGHHDYWGQGTLVTVSS
VL: NFMLTQPHSVSESPGKTVTISCTGSSGSIASNYVHWYQQRPGSAPTTVIFEDNQRPSGVPDRFSGSIDSSSNSASLTISGLKTEDEADYYCQSYDSSSFWVFGGGTKLTVL
notes: IgG; V domains only
B6: C999 (antibody, V domains shown)
VH: QVQLVQSGAEVRRPGASVKVSCKASGYTLTHYYIHWVRQAPGQGLEWVGIINPDGDNTNYAQKFQGRVTMTRDTSTSTVYMELSSLRSEDTAIFYCARGGAIPALRSAFDIWGQGTMVTVSS
VL: DIQMTQSPSTLSASVGDRVTITCRASQSINNWLAWYQQKPGKAPKLLIYKASTLESGVPSRFSGSGSGTEFTLTISSLQPDDFATYYCQQYNSYFFGQGTKLEIK
notes: IgG; V domains only
B7: C1002 (antibody, V domains shown)
VH: EVQLVESGGGLVQPGGSLRLSCAASEFIVSSNYMTWVRQAPGKGLEWVSIMYPGGSTFYADSVKGRFTISRDNSKNTLYLQINRLRAEDTAVYYCARDIAGRLDYWGQGTLVTVSS
VL: DIQMTQSPSSLSASVGDRVTITCQASQDINNYLNWYQQKPGKAPKLLIYDASNLETGVPSRFSGSGSGTDFSFTISSLQPEDIATYYCQQYDNLSRLTFGGGTKVEIK
notes: IgG; V domains only
B8: C1011 (antibody, V domains shown)
VH: QVQLVESGGGVVQPGRSLRLSCAVSGFTFSHYAMHWVRQAPGKGLEWVAVISYDGADKYYADSVRGRFTIARDNSKNTLFLQMSSLRPEDTAVYYCAKKGQPYCGGDCHFYYLDYWGQGTLVTVSS
VL: DIQMTQSPSSLSASVGDRVTITCQASQDISNHLNWYQQKPGKAPKLLIYDASNLETGVPSRFSGSGSGTDFTFTISSLQAEDIATYYCQQYDNLPPITFGQGTRLEIK
notes: IgG; V domains only
B9: C1010 (antibody, V domains shown)
VH: QVQLVESGGGVVQPGRSLRLSCAASGFTFSSYAMHWVRQAPGKGLEWVAVISYDGSNKYYADSVKGRFTISRDNSKNTLYLQMNSLRAEDTAVYYCAKKGQPYCGGDCYFYYFDYWGQGTLVTVSS
VL: DIQMTQSPSSLSASLGDRVTITCQASQDISNYLNWYQQKPGKAPKLLIYDASNLETGVPSRFSGSGSGTDFTFTISSLQPEDIATYYCQQYDNLPPITFGQGTRLEIK
notes: IgG; V domains only
B10: C1018 (antibody, V domains shown)
VH: QVQLVESGGGVVQPGRSLRLLCAASGFTFNTHGMHWVRQAPGKGLEWVAVIWFDGSNKYYADSVKGRFTISRDNSTNTLYLQMNSLRAEDTAVYYCARVYGGLPYYYAIDVWGQGTTVTVSS
VL: QSVLTQPPSVSGAPGQRVTISCAGSSSNIGAGYGVHWSQQLPGRPPKLLIYGDSNRPSGVPDRFSGSNSGTSASLAITGLQAEDEAVYYCQSYDRSLRAWVFGGGTKLSVL
notes: IgG; V domains only
B11: C1006 (antibody, V domains shown)
VH: QVQLVQSGAEVRKPGSSVKVSCKASGGPFDQYTFSWVRQAPGQGLEWMARITPVVDLTNYAQKFQGRITIITDKSTSTAYMELSSLRSEDTAIYYCATPLNDYYASGNLGLWGQGTLVTVSS
VL: DIQMTQSPSSLSASIGDRVTITCRASQGISYYLAWFQQKPGEAPRSLIYDASSLQSGVPSKFSGSGSGTDFTLTISSLQPEDSATYYCQQYNSYPLTFGGGTKVEIK
notes: IgG; V domains only
B12: C1007 (antibody, V domains shown)
VH: QVQLVQSGSEMKKPGSSVKVSCKAAGGTLNTHTFSWVRQAPGQGLEWMGRITPTVDLTNYAQKFQGRITITADTSTNTAYLELRRLRSEDTAIYYCATPLNDYYASGNLGLWGQGTLVTVSS
VL: DIQMTQSPSSLSASIGDTVTITCRASQGISYYLAWFQRKPGKAPKSLIYDASSLQSGVPSKFSGSGSGTDFTLTISSLQPEDSATYYCQQYSTYPLTFGGGTKVEIK
notes: IgG; V domains only
B13: C1012 (antibody, V domains shown)
VH: QVQLVQSGAEVKKPGSSVKVSCKASGGTVNNYAINWVRQAPGQGLEWMGGIVPIFGTPNYAQKFQGRVTITADESTSTAYMELSSLRSEDTAVYYCAKVSLTLPIAAAPRFWFDSWGQGTLVTVSS
VL: EIVMTQSPATLSVSPGERATLSCRASQSVSSHLAWYQQKPGQAPRLLIYGASTRATGIPARFSGSGSGTEFTLTISSLQSEDFAVYYCQQYHNWPPALTFGGGTKVEIK
notes: IgG; V domains only
B14: C1013 (antibody, V domains shown)
VH: QVQLVQSGVEVKKPGSSVKVSCKASGGTFTDYAFSWVRQAPGQGLEWMGGIVPIFATPDYAEKFRGRVTITADESTSTAYMELSTLKSEDTAVYYCARASLTLPIRAAPRFWFDAWGQGTLVTVSS
VL: EIVMTQSPATLSVSPGERATLSCRASQGVSTHLAWYQQKPGQAPRLLIYGASTRATGIPARFSGSGSGTEFTLTISSLQSEDFAVYYCQQYHKWPPALTFGGGTKVEIK
notes: IgG; V domains only
B15: C1022 (antibody, V domains shown)
VH: QVQLVQSGAEVKTPGASVKVSCQASGDTFTSQYLHWVRQAPGQGLEWMGIINPTAGSTTYAQKFQGRVTMTRDTSTSTVYMELRSLRSEDMAVYYCARGGFIPMVRGFIDHWGQGTLVTVSS
VL: QSALTQPASVSGSPGQSITISCTGTSSDVGGYNYVSWYQQHPGKAPKLMIYDVSNRPSGVSTRFSGSKSGNTASLTISGLQAEDEADYYCSSPTSSNTHVFGTGTKVTVL
notes: IgG; V domains only
B16: C1014 (antibody, V domains shown)
VH: QVQLQESGPGLVRPSQTLSLTCTVSGGSIGSGAYWSWIRQHPAKGLEWIGYVYYSGSTFYNPSLETRVSISVDISKDQFSLELTSVTVADTAVYYCAREKIEVVSIEMRPHYYGIDVWGQGTTVTVSS
VL: EIVMTQSPATLSVSPGERATLSCRASQSISSNLAWYQQKPGQPPRLLIYGASTRATGIPARFSGSGSGTEFTLTISSLQSEDIAVYYCQHYNNWPPWTFGQGTKVDIK
notes: IgG; V domains only
B17: C1021 (antibody, V domains shown)
VH: QVQLVQSGAELKKPGASVKVSCKASGYTFSTYYIHWVRQAPGQGLEWMGIINPEAGSTSYAQKFQGRVTMTTDTSTSTVYMELISLRSQDTAIYYCARDAVGVPAINSLEYWGQGTLVTVSS
VL: EIVLTQSPATLSLSPGERATLSCRASQSISSYLAWYQQKPGQAPRLLIYDASNRATDISARFSGSGSGTDFTLTISSLEPEDFAVYYCQHRSNWPPSFTFGGGTKVEIK
notes: IgG; V domains only
B18: C1020 (antibody, V domains shown)
VH: QVQLVQSGAEVKKPGASVKISCKASGYSFSNYYIHWVRQAPGQGLEWMGIINPSGNSISYAQKFQGRVTMTGDTSTSTVYMELSSLRSEDTAVYYCARSVFPVPAAGGCDYWGQGTLVTVSS
VL: DIQMTQSPSSLSASVGDRVTITCRASQSITTSLNWYQQKPGKAPKLLIYSASTLESGVPSRFSGSGSGTDFTLTISSLQPEDFATYYCQQTYRAPPYTFGQGTKLEIK
notes: IgG; V domains only
B19: C1023 (antibody, V domains shown)
VH: QVQLVQSGAEMKKPGASVKISCKASGDTFTTNYFHWVRQAPGQGLEWMGIINPSAGSTTYAQRFQGRVTMTGDSSTNTVYLELRSLRSEDTAMYFCAKGSYIPAMRSSFDPWGQGTLVTVSS
VL: EIVLTQSPGTLSLSPGERATLSCRASQSVSHRYLAWYQQKPGQAPRLLIDGASNRATGIPDRFSGSGSGTDFTLTISRLEPEDFGVYYCQQYGSSPPFTFGQGTKLEIK
notes: IgG; V domains only
B20: C1016 (antibody, V domains shown)
VH: QVQLQESGPGLVKPSGTLSLTCAVSGGPISSNHWWSWVRQPPGKGLEWIGEVYRNGNTNYHPSLKSRVTMSIDNSKNQFSLSLTSVTAADTAVYYCARGGDLAMGPEYLDFWGQGTLVTVSS
VL: QSALTQPASVSGSPGQSITISCTGTSSDVGANNYVSWYQQHPGKAPKLMIYDVINRPSGVSDRFSGSKSGNTASLTISGLQAEDEADYYCSSFSTSSTLLFGGGTKLTVL
notes: IgG; V domains only
B21: C1001 (antibody, V domains shown)
VH: QVQLQESGPGLVKPSQTLSLTCTVSGGSISSGDYYWTWIRQPPGKGLEWIGYIFYSGITYYSPSLKSRLTMSIDTSKSQFSLNLSSVTAADTAVYYCARWKRLLQSLHFDYWGQGILVTVSS
VL: QSALTQPRSVSGSPGQSVTISCTGTSSDVGSYDYVSWYQQHPGKAPKVMIYGVDERPSGVPHRFSGSKSGNTASLTISGLQADDEADYFCCFYAGSYTLLFGGGTKVTVL
notes: IgG; V domains only
B22: C1000 (antibody, V domains shown)
VH: QVQLQESGPGLVKPSQTLSLSCTVSGGSISSDDYYWSWIRQPPGKGLEWIGYIYYSGSTYYNSSLKSRVSISVDTSKNQFSLKLSSVTAADTAVYYCARWKRWLQFLYFDYWGQGTLVTVSS
VL: QSALTQPRSVSGSPGQSVTISCTGTSSDVGGYSFVSWYQQHPGKAPKVLIYDVDKRPSGVPDRLSGSKSGNTASLTISGLQAEDEADYYCCSYAGSYTLIFGGGTKLTVL
notes: IgG; V domains only

Biological target: T1, SARS-COV-2 RBD (SARS-COV-2, UniProt P0DTC2 319-539)
T1 construct: also called WT RBD
Assay: ELISA, RBD coated

| Binder | EC50 [ng/mL] |
| --- | --- |
| B1 | 17.2 |
| B2 | 1.34 |
| B3 | 1.82 |
| B4 | 2.8 |
| B5 | 2.37 |
| B6 | 2.68 |
| B7 | 0.83 |
| B8 | 1.49 |
| B9 | 2.45 |
| B10 | 3.09 |
| B11 | 2.04 |
| B12 | 3.22 |
| B13 | 3.29 |
| B14 | 8.92 |
| B15 | 1.66 |
| B16 | 2.95 |
| B17 | 2.53 |
| B18 | 2.06 |
| B19 | 1.13 |
| B20 | 2.16 |
| B21 | 3.23 |
| B22 | 3.2 |
